We go through 15 molecules from PMC9044407 (Protein Science : A Publication of the Protein Society, 2022).

Data set [1] concerns the target T1, Suv3 (human, UniProt Q8IYB8 48-786).
T1 sequence: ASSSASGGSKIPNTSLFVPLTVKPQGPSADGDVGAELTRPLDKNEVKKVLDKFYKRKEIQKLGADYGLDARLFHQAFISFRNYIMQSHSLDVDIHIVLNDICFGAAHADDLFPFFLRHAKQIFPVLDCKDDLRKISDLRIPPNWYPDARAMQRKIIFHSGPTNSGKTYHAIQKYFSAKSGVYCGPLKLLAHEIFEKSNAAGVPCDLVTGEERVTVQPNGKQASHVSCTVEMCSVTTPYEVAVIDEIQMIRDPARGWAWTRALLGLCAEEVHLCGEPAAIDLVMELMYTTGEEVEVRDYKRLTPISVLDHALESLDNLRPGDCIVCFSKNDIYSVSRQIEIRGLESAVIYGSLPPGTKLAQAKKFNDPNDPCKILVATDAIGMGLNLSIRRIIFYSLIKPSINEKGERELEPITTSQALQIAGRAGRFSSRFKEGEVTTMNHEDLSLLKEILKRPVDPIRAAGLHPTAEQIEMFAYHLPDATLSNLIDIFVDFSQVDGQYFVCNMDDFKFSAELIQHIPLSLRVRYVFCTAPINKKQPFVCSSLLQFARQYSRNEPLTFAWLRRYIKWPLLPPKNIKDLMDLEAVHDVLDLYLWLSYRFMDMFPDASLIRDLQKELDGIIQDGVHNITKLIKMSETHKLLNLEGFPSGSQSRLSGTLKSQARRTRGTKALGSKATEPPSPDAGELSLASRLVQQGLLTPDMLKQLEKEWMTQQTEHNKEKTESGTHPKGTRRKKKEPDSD
Put plainly: fluorescence polarization. On the technique in general: Fluorescence polarisation rises when a labelled molecule tumbles more slowly, as on binding a larger partner.

Data set [2] addresses T1, Suv3. The data set can be described thus: fluorescence polarization. This is another data set of the same source.
Data set [3] concerns the molecule itself.
Data set [4] addresses T2, human Suv3 (residues 48–786), N-terminal His-tagged (human, UniProt Q8IYB8 48-786).
T2 sequence (looked up): T1 sequence
Put plainly: SEC. Background: SEC sorts molecules by how far they enter the pores of the column.

Data set [5] concerns the target T3, Suv3ΔC (human, UniProt Q8IYB8 48-722, del723-786).
T3 sequence: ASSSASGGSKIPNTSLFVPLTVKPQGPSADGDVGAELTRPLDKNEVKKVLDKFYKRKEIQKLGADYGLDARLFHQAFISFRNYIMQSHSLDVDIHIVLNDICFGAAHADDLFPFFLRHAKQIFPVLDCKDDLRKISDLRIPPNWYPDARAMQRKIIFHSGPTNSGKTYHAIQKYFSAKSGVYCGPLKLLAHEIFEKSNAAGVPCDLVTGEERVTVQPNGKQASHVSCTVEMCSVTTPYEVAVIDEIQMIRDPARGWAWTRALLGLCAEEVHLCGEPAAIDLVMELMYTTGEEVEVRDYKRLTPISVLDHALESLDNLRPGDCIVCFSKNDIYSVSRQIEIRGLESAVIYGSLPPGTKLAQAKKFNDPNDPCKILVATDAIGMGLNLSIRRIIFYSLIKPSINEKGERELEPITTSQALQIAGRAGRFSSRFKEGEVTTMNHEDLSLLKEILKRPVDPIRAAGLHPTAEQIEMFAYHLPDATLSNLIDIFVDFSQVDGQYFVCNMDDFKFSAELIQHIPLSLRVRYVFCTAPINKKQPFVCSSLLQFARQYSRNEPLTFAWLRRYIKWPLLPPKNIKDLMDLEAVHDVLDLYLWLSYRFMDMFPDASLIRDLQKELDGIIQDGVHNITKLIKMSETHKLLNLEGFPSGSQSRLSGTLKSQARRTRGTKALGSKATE
The data set can be described thus: fluorescence polarization.

Data set [6] concerns the target T1, Suv3. The data set can be described thus: fluorescence polarization. This is another data set of the same source.
In data set [7] the target is T1, Suv3. The data set can be described thus: fluorescence polarization. The source holds these as a separate data set.
Data set [8] concerns the target T1, Suv3. The data set can be described thus: fluorescence polarization. This is another data set of the same source.
For data set [9], the target named is T1, Suv3. Put plainly: fluorescence polarization. The source holds these as a separate data set.

Where a chain is given by its changes, count along the chain named. Where two headings read alike, the source gives them in different places.

For orientation: Kd means the concentration at which binding is half-saturated. A lower Kd goes with tighter binding. GGUGUGGUGGCAUACGUGCAGACGC (ssRNA) [ssRNA 25 nt] gave a Kd in data set [1] of 53.1 ± 0.7 nM.

B1: blunt-end dsRNA (dsRNA)
RNA 1: GGUGUGGUGGCAUACGUGCAGACGC
RNA 2: GCGUCUGCACGUAUGCCACCACACC
For the molecule B1, the binding result in data set [2] is “no binding”.

B2: dsRNA 5-nt 3' overhang (dsRNA)
RNA 1: GGUGUGGUGGCAUACGUGCAGACGC
RNA 2: GCGUCUGCACGUAUGCCACCACACCAGGAG
B2 returned a Kd in [1] of about 65 nM.

B3: blunt-end dsDNA (dsDNA)
DNA 1: GGTGTGGTGGCATACGTGCAGACGC
DNA 2: GCGTCTGCACGTATGCCACCACACC
Consider B3, for which the affinity in [1], expressed as Kd, was 63.9 ± 1.5 nM.

B4: human PNPase (residues 46–783), C-terminal His-tagged (enzyme, UniProt Q8TCS8 46-783, looked up)
chain: AVAVDLGNRKLEISSGKLARFADGSAVVQSGDTAVMVTAVSKTKPSPSQFMPLVVDYRQKAAAAGRIPTNYLRREIGTSDKEILTSRIIDRSIRPLFPAGYFYDTQVLCNLLAVDGVNEPDVLAINGASVALSLSDIPWNGPVGAVRIGIIDGEYVVNPTRKEMSSSTLNLVVAGAPKSQIVMLEASAENILQQDFCHAIKVGVKYTQQIIQGIQQLVKETGVTKRTPQKLFTPSPEIVKYTHKLAMERLYAVFTDYEHDKVSRDEAVNKIRLDTEEQLKEKFPEADPYEIIESFNVVAKEVFRSIVLNEYKRCDGRDLTSLRNVSCEVDMFKTLHGSALFQRGQTQVLCTVTFDSLESGIKSDQVITAINGIKDKNFMLHYEFPPYATNEIGKVTGLNRRELGHGALAEKALYPVIPRDFPFTIRVTSEVLESNGSSSMASACGGSLALMDSGVPISSAVAGVAIGLVTKTDPEKGEIEDYRLLTDILGIEDYNGDMDFKIAGTNKGITALQADIKLPGIPIKIVMEAIQQASVAKKEILQIMNKTISKPRASRKENGPVVETVQVPLSKRAKFVGPGGYNLKKLQAETGVTISQVDEETFSVFAPTPSAMHEARDFITEICKDDQEQQLEFGAVYTATITEIRDTGVMVKLYPNMTAVLLHNTQLDQRKIKHPTALGLEVGQEIQVKYFGRDPADGRMRLSRKVLQSPATTVVRTLNDRSSIVMGEPISQSSSNSQ
For orientation: stoichiometry N means the number of molecules, sites or subunits per partner or assembly. Consider B4, for which the “stoichiometry N” value in data set [3] is 3. Further, the binding result in data set [4] is on record as “binds”.

B5: dsRNA 20-nt 3' overhang (dsRNA)
RNA 1: GGUGUGGUGGCAUACGUGCAGACGC
RNA 2: GCGUCUGCACGUAUGCCACCACACCAGGAGAGGAGAGGAGAGGAG
In the case of B5, the Kd in data set [1] was about 18 nM.

B6: dsRNA 15-nt 3' overhang (dsRNA)
RNA 1: GGUGUGGUGGCAUACGUGCAGACGC
RNA 2: GCGUCUGCACGUAUGCCACCACACCAGGAGAGGAGAGGAG
B6 registered a Kd in [1] of about 18 nM.

B7: dsDNA 10-nt 3' overhang (dsDNA)
DNA 1: GGTGTGGTGGCATACGTGCAGACGC
DNA 2: GCGTCTGCACGTATGCCACCACACCAGGAGAGGAG
Regarding B7, the Kd in data set [1] was 11.5 ± 0.2 nM; in data set [5] it was 99 ± 8.6 nM.

B8: dsRNA 10-nt 3' overhang (dsRNA)
RNA 1: GGUGUGGUGGCAUACGUGCAGACGC
RNA 2: B7 DNA 2 with T4U, T6U, T12U, T14U
For B8, the Kd in [6] was determined as 62.2 ± 2.2 nM; in data set [7] it was 32.6 ± 0.6 nM; in data set [1], 18.7 ± 0.7 nM; in data set [8], 19.3 ± 0.5 nM.

B9: DNA-RNA hybrid 10-nt 3' overhang (DNA:RNA)
DNA: GGTGTGGTGGCATACGTGCAGACGC
RNA: B7 DNA 2 with T4U, T6U, T12U, T14U
For the molecule B9, the Kd was 13.1 ± 0.4 nM in data set [1] and 110 ± 9.5 nM in data set [5]. In data set [1], GGTGTGGTGGCATACGTGCAGACGC (ssDNA) [ssDNA 25 nt] registered a Kd of 44 ± 1.7 nM.

B10: blunt-end DNA-RNA hybrid (DNA:RNA)
DNA: GGTGTGGTGGCATACGTGCAGACGC
RNA: GCGUCUGCACGUAUGCCACCACACC
Turning to B10, binding in data set [1] was put at a Kd of 103 ± 5.9 nM.

B11: dsDNA 10-nt 5' overhang (dsDNA)
DNA 1: GGTGTGGTGGCATACGTGCAGACGC
DNA 2: GAGGAGAGGAGCGTCTGCACGTATGCCACCACACC
Regarding B11, the binding signal in [9] is 8 fold lower affinity than 3' overhang dsDNA.

B12: DNA-RNA hybrid 10-nt 5' overhang (DNA:RNA)
DNA: GGTGTGGTGGCATACGTGCAGACGC
RNA: B11 DNA 2 with T14U, T16U, T22U, T24U
On to B12, for which the binding signal in [9] is 23 fold lower affinity than 3' overhang DNA-RNA hybrid.

B13: dsRNA 10-nt 5' overhang (dsRNA)
RNA 1: GGUGUGGUGGCAUACGUGCAGACGC
RNA 2: B11 DNA 2 with T14U, T16U, T22U, T24U
As for B13, in [2], the binding result is reported as “no binding”.
